From patent publication US20050106674A1

These substances were tested against recombinant soluble HEK4 binding protein purified from CHO/HL6 cell-conditioned medium (human) (UniProt P52803) (assay: BIAcore competition: soluble receptor extracellular domain preincubated with 0.250 µg/ml HEK4 BP, binding to immobilized HEK4 receptor).
UniProt P52803, sequence (P52803 20-198 limits assumed, form in doubt): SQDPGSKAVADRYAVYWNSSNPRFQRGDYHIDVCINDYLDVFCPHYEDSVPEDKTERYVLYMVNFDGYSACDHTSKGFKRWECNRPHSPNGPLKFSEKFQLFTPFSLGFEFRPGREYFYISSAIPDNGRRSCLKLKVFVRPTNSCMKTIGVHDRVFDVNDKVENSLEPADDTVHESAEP

IC50 | Substance
5 µg/mL | ECK soluble receptor (purified extracellular domain) (from UniProt P29317 24-537)
0.55 µg/mL | HEK4 receptor extracellular domain (HEK4-X), produced in CHO cells (from UniProt P29320 21-541)
10.5 µg/mL | HEK8 soluble receptor (purified extracellular domain) (from UniProt P54764 20-547)
